# Assay results: the DeepSol protein solubility set
# Assay: soluble on expression in E. coli; label from the status in PepcDB or PDB records
row,Sequence,soluble on expression in E. coli
1,MPDLSAAEFTLLQGAHLFAPEDRGICDVLLANGKIIAVGAGIPGDIVPDCTVINLSGRMLCPGFIDQHVHLIGGGGEAGPTTRTPEVSLSRLTEAGITTVVGLLGTDSVSRHPASLLAKTRALNEEGITAWMLTGAYHVPSPTITGSVEKDVALIDRVIGVKCAVSDHRSAAPSGNQLASMAAESRVGGLLGGKPGVSVFHMGSSKKGLQPLYDILENSDVPIGKLLPTHVNRSESLFEQALAFALKGGVIDITTSIPDPVAPAEGIARAVKAGVPLSRVTLSSDGNGSQPLFDAAGNLTGIGVAGFESLLETLQTLVNHYGFSLANALRPLTTSVAAFLSLDGKGEIRPGNDADLLVFSADLRIEQVYARGKRMVNEGKACVKGTFEPA,not soluble
2,MPDSTRQPSAPVRDRLQQYGLSETEAETYLAVVEKGPATARTVAETAGVSKSYVYDICDSLAVDGFVSVDDHRTPTVIRATPPSEAFSALKRELDTLEAAVQTRYEDTAAENNTFEVVKSRPTIVKRLEQHIEAADCEVILQIPARRLPDIRDPLRRARERGILVLLTLSSYDRATMELDLKEIANAVRIGLDGAPSLLATDQQRGFVSPSTMLSWDHDETNAITFTQEAVAAVLVGSYLGNYWPIGEEVLVSRPPSLPARYDMFRPVVFTTTLALRAGESVVADLYARPTGSDDDFEVISGEVVDVRQNLVAPHNSDFGFENSLVVDTGDSRITVGGYGAFLEDYEVKHTTLRRA,not soluble
3,MPDYLVVLQAAWIVRKARSVEDAMNIAVAEAGKKLNPDLDFVKIDVGDTACPKCNSPLKAVFMVAGVALVGLIFEMKVFNAKSPEHAAKIAKYEIGKRMPRIPLEVIEVAEIE,not soluble
4,MPEGKIIKALSGFYYVLDESEDSDKVIQCRGRGIFRKNKITPLVGDYVVYQAENDKEGYLMEIKERTNELIRPPICNVDQAVLVFSAVQPSFSTALLDRFLVLVEANDIQPIICITKMDLIEDQDTEDTIQAYAEDYRNIGYDVYLTSSKDQDSLADIIPHFQDKTTVFAGQSGVGKSSLLNAISPELGLRTNEISEHLGRGKHTTRHVELIHTSGGLVADTPGFSSLEFTDIEEEELGYTFPDIREKSSSCKFRGCLHLKEPKCAVKQAVEDGELKQYRYDHYVEFMTEIKDRKPRY,not soluble
5,MPEITRRRALTAAAAVAATASAAVTLAAPAASAAGHHEPAAPESFDEVYKGRRIQGRPARGAAHHHEHGGGYEVFVDGVQLHVMRNADGSWISVVSHFDPVPTPRAAARAAVDELQGAPLLPFPANLEHHHHHH,soluble
6,MPELSETAERSQSNTPLAMIMDDSDIDYQRFQELVASTDSLAILCHDNPDPDTLASALALEAIAKEWEVPTVDIVYGGTVTHQQNRAMINVLDIELTPIDQVSLSDYGLVAFVDHGIPGQNNSAVEEMTPDIIIDHHPTDGLQGQFVDLRPAVGATATLLTRYLEIFSIELEERLATALLFALHRETLDFNRETTSTEHAAACVLHPHADHNIIEELTNSVFTPETISGIGDAIANREVRGSCLVSSLGWIRERDAVPQAADYLLQLEGVSTTIVYGIVDDNVHLSGRTSNSQLHIGNVMEETFDQVGSAGGHHDMAGGQVPLGFIGSVDDGDDVAIDLINQSMMARLFGALEGWTET,not soluble
7,MPEPHAVLYVTNELSHIVKNEFLPIWKLTGDESLNDLWLENGKYATDVYAYGDVSKWTIRQLRGHGFIFISTHKNVQLADIIKTVDVRVPREVARSHDMKAFENEIGRRRIRMRKGFGDALRNYAFKMAIEFHGSEAETLNDANPRLHKIYGMPEIPPLYMEYAEIGTRFDDEPTDEKLVSMLHYIVYSAEEVHYIGCGDLRTLMQFKKRSPGRFRRVLWHVYDPIAPECSDPNVIVHNIMVDSKKDILKHMNFLKRVERPFIWDVSSDRSQMNDHEWETTRFAEDRLGEEIAYEMGGAFSSALIKHRIPNSKDEYHCISTYLFPQPGADADMYELRNFMRLRGYSHVDRHMHPDASVTKVVSRDVRKMVELYHGRDCGSFLKKRLFEHLHIVRKNGLLHESDEPRADLFYLTNRCNMGLEPSIYEVMKKSVIATAWVGRAPLYDYDDFALPRSTVMLNGSYRDIRILDGNGAILFLMWRYPDIVKKDLTYDPAWAMNFAVSLKEPIPDPPVPDISLCRFIGLRVESSVLRVRNPTLHETADELKRMGLDLSGHLYVTLMSGAYVTDLFWWFKMILDWSAQNREQKLRDLKRSAAEVIEWKEQMAERPWHVRNDLIAALREYKRKMGMREGASIDSWLELLRHL,soluble
8,MPFEIGTMPIMSIDPKLLEVLACPQDKGPLKYLEAEQVLVNERLEIAYRIDDGIPVMLVDESIAWPPAEKAAALEHHHHHH,not soluble
9,MPFKPVEHPKCPKCGKSVYAAEEMSAGGYKWHKFCFKCNMCNKLLDSCTVAPHEAELYCKQCHGRKFGPKGVGFGLGAGCLTTDSGEKFGGSKQT,not soluble
10,MPGLCTGPFAKGRCMSLLAQLDQKIAANGGLIVSCQPVPDSPLDKPEIVAAMALAAEQAGAVAIRIEGVANLQATRAVVSVPIIGIVKRDLEDSPVRITAYIEDVDALAQAGADIIAIDGTDRPRPVPVETLLARIHHHGLLAMTDCSTPEDGLACQKLGAEIIGTTLSGYTTPETPEEPDLALVKTLSDAGCRVIAEGRYNTPAQAADAMRHGAWAVTVGSAITRLEHICQWYNTAMKKAVL,soluble
11,MPGNHSEISLNEQNRVDDNDTKTKTTTRKKKKKKDVTIVDDDDNQFDTTNQLVKSKNRFLGKFRKKPKSPKRWSGSRKGGCFRVMRPRRREGGDDDSSVSSPVSDPNDERFSHEMLRVMLETNDFCSDECNPHR,soluble
12,MPIPAPSPDARAVVTGASQNIGAALATELAARGHHLIVTARREDVLTELAARLADKYRVTVDVRPADLADPQERSKLADELAARPISILCANAGTATFGPIASLDLAGEKTQVQLNAVAVHDLTLAVLPGMIERKAGGILISGSAAGNSPIPYNATYAATKAFVNTFSESLRGELRGSGVHVTVLAPGPVRTELPDASEASLVEKLVPDFLWISTEHTARVSLNALERNKMRVVPGLTSKAMSVASQYAPRAIVAPIVGAFYKRLGGS,not soluble
13,MPISYCVSAKKASVVVESVVGNFTGHENVNLIVARGNRIDVQLVSPEGLKNVCEIPIYGQVLTIALVKCKRDKRHSLIVVTEKWHMAILAYRDGKVVTRAAGCIADPTGRATDNLFSLTIHRNGLIAIRAFEGSVKMIQWESGTDLRHFNVRFDYPNVSDFKFVDTGEDDVYRVAFIYDDDHGKHLQFSDLNMHDKEFRTYSRQASIAADSSVLIPVPHAIGGVIVLGSNSVLYKPNDNLGEVVPYTCSLLENTTFTCHGIVDASGERFLLSDTDGRLLMLLLNVTESQSGYTVKEMRIDYLGETSIADSINYIDNGVVFVGSRLGDSQLIRLMTEPNGGSYSVILETYSNIGPIRDMVMVESDGQPQLVTCTGADKDGSLRVIRNGIGIDELASVDLAGVVGIFPIRLDSNADNYVIVSLSDETHVLQITGEELEDVKLLEINTDLPTIFASTLFGPNDSGIILQATEKQIRLMSSSGLSKFWEPTNGEIISKVSVNAANGQIVLAARDTVYLLTCIVDEMGALDIQLTAEKKFENEIACLDLSNEGDDPNNKATFLVLAFWSTFAMEVIQLPDLITVCHTDLPTKIIPRSIIATCIEEVHYLLVAFGDGALVYYVFDIKTGTHGEPKKSNVGTRPPSLHRVRNKNRQHLFVCSDRPVIIFSASKKLVFSNVNVKLVDTVCSLSSSAYRDCLVISDGNSMVFGTVDDIQKIHVRSIPMGESVLRIAYQKSTSTYGVCSNRTESKAERVFASKNALVTSQSRPKVASTRADMDESPPNTTSSFMVLDQNTFQVLHSHEFGPWETALSCISGQFTNDSSTYYVVGTGLIYPDETETKIGRIVVFEVDDVERSKLRRVHELVVRGSPLAIRILNGKLVAAINSSIRLFEWTTDKELRLECSSFNHVIALDLKVMNEEVAVADVMRSVSLLSYRMLEGNFEEVAKDWNSQWMVTCEFITAESILGGEAHLNLFTVEVDKTRPITDDGRYVLEPTGYWYLGELPKVMTRSTLVIQPEDSIIQYSQPIMFGTNQGTIGMIVQIDDKWKKFLIAIEKAIADSVKNCMHIEHSSYRTFVFQKRAEPPSGFVDGDLVESILDMDRSVAMDILSKVSDKGWDPSLPRDPVEILKVIEDLARMH,not soluble
14,MPITKIHARQIYDSRGNPTVEVDLFTEKGVFRAAVPSGASTGVHEALELRDGDKAVHLGKGVLKAVSNINEKIAPALIAKGFDVTAQKDIDDFMMALDGSENKGNLGANAILGVSLAVAKAGAVHKGLPLYKYIAELAGTGKVVLPVPAFNVINGGSHAGNKLAMQEFMILPVGASSFAEAMRMGSEVYHHLKAEIKKRYGLDATAVGDEGGFAPNIQDNKEGLDLLNTAIDKAGYTGKISIGMDVAASEFFKDGKYDLDFKNPASDSSKWLSGEQLTELYQSFIKEYPVVSIEDAFDQDDWDNWGKFHGATSIQLVGDDLTVTNPKRIQTAIDKKSCNCLLLKVNQIGSVTESIEAAKLSRANGWGVMVSHRSGETEDTFIADLVVGLATGQIKTGAPCRSERLAKYNQLLRIEEELGADAVYAGHNFRNPQV,not soluble
15,MPKFVVIELNDDAATIDLLSYCVKKNFERVSLLTRLEDHPYLRDDQDVVQDDTQSQGTDGMLLQLNDEERQRLMKMISTPGPQTLSMERIQMAPGQGQHILQQHQIPSTSSYTNNSFIYIKSDPQYKDEPQQQSNQFDATVNSVAHGQAGLSTLEMFACNGSPNGGDVLRRKTPSRKAEDSIKATCKVCGHDVMYSPQRTWNLMRHVWIMHQSSKPNQCSICGYSHIKPYVRKHIESQHKHDSNATIIDLKSPELEAEWSQLLDQCFGVTYRKWKHHKEDTQHTGGLLFDDDELRG,soluble
16,MPKGGASCLTPVYAGIRDDLNSFLRAYLQFESVRFFDYKVMFENRGMVGLFTGRHNSAEIIEFNECLLVHCLPYMEECVCPGTPRSLKERLFGLYSLYTFYYIQQEKHVVKVRMDPDSSRNFRRFAQFLLTEKIYDAYALCQKLLEDKAIKQVAFISIHDPSHFKRFYTDDKVSGVSIRTNLNDPLVNVKALVEQFDALGVIHKEYSRLKMKLGITSWMKLKDPIEELKKIIKTSLQAVESSSGVDEIVHTDHSAQQLASRGMQRSSIKDQAHSAALKFSRTRRHRSVKPVIVPAETFEYAPDPKKKKEAQETMPVSGRNGRKRGRPKSVPKSKVSNPARILYEKLAEDMISEHLSTDLTEQEAFTDRPQSSLEPQKNELFNWDAAPQDAQISNQTTEPSCGEDIFIEDFGEFKSQDDVMFTAEDFNDSLIPPLADSDSDLEIDA,not soluble
17,MPKLPRIDFYFDVISPYSYIAFEVFQKLETQWKGVTIRYIPFFLGAVMKESGNRPPAMLPARSIMMMTDLKRTAKFWDIPLTPPPLFMEWIKKYRTTGAMKVLLVLQEQDKELMLRAAREMWVRLWSRSEKIFEDQDFVEVLKAVGVKNPEQIVEKSKDEKYIKILMENTNKGVDLMAYGAPWINVHTEDGSEHSFFGSDRFHLIADLLQQPQPLPDRLFGQKSKL,not soluble
18,MPKTQGLSPESLISQFARCEEGWCVQYHDVILASAFQPVISITHKRVVGYEALVRATDANNAQISPDTLFARAQARGETILLDRLTRCLHVANFSEQDTGSCWLFLNVLPQMFDAGIAPSVFIEALCAHFALPPTRVVLEVIEQPSRNEPALARTLDMIQHGDFLIAVDDFGTGFSNFDRIWQIKPDIVKLDRSILERSLAASDAHRIVHHLVTMLHHAGTMVLAEGVENEDALQILMDADVDFVQGFCFGLPDPSLERARRAAPARIETAWQRFAERVKERRGDVVHPGFDTIERIVLAGAADYAQARDLRGAAQRLLTNPIVRRVFVAEANGEQVEPSVTNETPDTPSATTRRLAPLLPELHCNWSRRAYFQRAVAAPGRVALMGPHFSLTDGRDCYTAAVAIHLGTTLKVFCVDFDFSSYGDGQ,not soluble
